Laboratory results taken from patent US20230399412A1 (NANJING IASO BIOTECHNOLOGY, published 2023).

What was measured:
[1] = molecular target: T1, CD70 on the cell surface of CD70-positive cell lines (UniProt P32970 1-193, limits assumed); assay: phage FACS on CD70-positive cell lines (Raji, U266)
T1 construct: whole, on cells; One molecule for all cell lines; the cell line is named under assay; also called natural CD70 on the cell surface; CD70 antigen on Raji, U266, THP-1, RS4:11, REH, Molm-13 cells
T1 sequence (looked up): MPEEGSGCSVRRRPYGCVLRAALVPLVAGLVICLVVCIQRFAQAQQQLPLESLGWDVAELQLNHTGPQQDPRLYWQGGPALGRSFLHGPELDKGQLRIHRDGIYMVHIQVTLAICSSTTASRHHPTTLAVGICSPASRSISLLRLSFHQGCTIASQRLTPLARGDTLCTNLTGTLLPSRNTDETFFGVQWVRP

[2] = molecular target: T2, Human CD70/CD27 Ligand Protein (human FC Tag)-Biotin (Kactus, CD7-HM270) (human, UniProt P32970 39-193, biotinylated); assay: phage ELISA
T2 construct: Bought reagent; also called Kactus-CD70-Fc-Bio; Katcus-CD70-Fc-Bio; not shown: human Fc tag
T2 sequence (looked up): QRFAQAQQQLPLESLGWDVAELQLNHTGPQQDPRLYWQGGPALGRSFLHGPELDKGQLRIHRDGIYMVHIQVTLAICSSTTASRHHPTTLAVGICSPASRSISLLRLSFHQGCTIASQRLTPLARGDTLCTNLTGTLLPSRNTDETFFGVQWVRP

[3] = molecular target: T3, Biotinylated Human CD27 Ligand, Avitag, human Fc Tag (ACRO biosystem, TN7-H82F4) (human, UniProt P32970 39-193, biotinylated (Avitag)); assay: phage ELISA
T3 construct: Bought reagent; also called Acro-CD70-Fc-Bio; not shown: human Fc tag and Avitag
T3 sequence (looked up): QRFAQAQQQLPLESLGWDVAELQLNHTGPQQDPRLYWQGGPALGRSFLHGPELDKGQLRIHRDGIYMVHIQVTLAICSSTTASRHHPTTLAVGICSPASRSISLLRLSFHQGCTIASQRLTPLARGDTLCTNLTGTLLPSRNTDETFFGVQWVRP

[4] = molecular target: T4, Biotinylated Human CD27 Ligand, HIS, Avitag (ACRO biosystem, CDL-H82Q9) (human, UniProt P32970 39-193, biotinylated (Avitag)); assay: phage ELISA
T4 construct: Bought reagent; also called Acro-CD70-his-Bio; CD70-his-Bio; not shown: His tag and Avitag
T4 sequence (looked up): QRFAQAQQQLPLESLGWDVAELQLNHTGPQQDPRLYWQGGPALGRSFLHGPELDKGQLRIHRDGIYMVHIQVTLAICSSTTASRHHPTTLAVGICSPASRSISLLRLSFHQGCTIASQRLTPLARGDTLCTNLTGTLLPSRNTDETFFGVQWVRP

[5] = molecular target: T5, Biotinylated Human Siglec-2/CD22 Protein, human Fc, Avitag (ACRO biosystem, SI2-H82F8) (human, UniProt P20273 20-687, biotinylated (Avitag)); assay: phage ELISA
T5 construct: Irrelevant control antigen; also called Acro-CD22-Bio; CD22-Fc-Bio; not shown: human Fc and Avitag
T5 sequence (looked up): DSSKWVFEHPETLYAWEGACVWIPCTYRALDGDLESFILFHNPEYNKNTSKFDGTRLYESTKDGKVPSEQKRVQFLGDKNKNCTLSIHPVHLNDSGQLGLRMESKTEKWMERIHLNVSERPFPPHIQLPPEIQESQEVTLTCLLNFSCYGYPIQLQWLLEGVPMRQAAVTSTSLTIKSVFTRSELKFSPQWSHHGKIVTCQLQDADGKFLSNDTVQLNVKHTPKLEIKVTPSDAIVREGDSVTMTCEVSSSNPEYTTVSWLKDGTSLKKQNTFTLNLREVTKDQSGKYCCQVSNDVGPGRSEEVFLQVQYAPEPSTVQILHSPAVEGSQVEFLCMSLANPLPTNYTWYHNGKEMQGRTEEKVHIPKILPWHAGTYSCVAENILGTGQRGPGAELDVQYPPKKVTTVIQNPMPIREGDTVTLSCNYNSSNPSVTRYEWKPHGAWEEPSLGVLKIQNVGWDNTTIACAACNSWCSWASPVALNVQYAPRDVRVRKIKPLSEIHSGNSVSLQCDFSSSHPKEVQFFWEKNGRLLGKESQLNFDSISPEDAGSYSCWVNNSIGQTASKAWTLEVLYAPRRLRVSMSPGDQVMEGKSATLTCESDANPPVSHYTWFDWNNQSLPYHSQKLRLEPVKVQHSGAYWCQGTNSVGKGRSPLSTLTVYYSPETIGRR

[6] = molecular target: T6, Human CD70/CD27 Ligand Protein-his-Trimer (Kactus, CD7-HM271-1) (human, UniProt P32970 39-193); assay: phage ELISA
T6 construct: Bought reagent, named a trimer; also called Kactus-CD70 Trimer-his; Kactus-CD70Trimer-his; not shown: His tag (and any trimerisation part)
T6 sequence (looked up): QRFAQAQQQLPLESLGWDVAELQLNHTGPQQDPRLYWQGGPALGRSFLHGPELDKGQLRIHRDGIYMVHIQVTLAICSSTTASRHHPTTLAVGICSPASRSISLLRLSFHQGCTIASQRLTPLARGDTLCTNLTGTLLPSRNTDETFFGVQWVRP

[7] = molecular target: T7, Human CD70/CD27 Ligand Protein-his-Trimer-Biotin (Kactus, CD7-HM271) (human, UniProt P32970 39-193, biotinylated); assay: phage ELISA
T7 construct: Bought reagent, named a trimer; also called Kactus-CD70Trimer-his-Bio; Katcus-CD70 Trimer-His-Bio; not shown: His tag (and any trimerisation part)
T7 sequence (looked up): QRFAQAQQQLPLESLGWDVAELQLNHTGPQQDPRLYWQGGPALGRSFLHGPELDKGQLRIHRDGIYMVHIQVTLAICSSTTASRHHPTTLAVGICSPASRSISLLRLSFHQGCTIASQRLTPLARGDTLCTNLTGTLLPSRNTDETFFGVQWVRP

Binder	binding result [1]	binding result [2]	binding result [3]	binding result [4]	binding result [5]	binding result [6]	binding result [7]
phage monoclonal antibody clone #20 (VHH, single-domain antibody (heavy chain variable region alone); also called VHH20; VHH 20) VHH: EVQLLESGGGLVQPGGSLRLSCAASGFTFSSYAMGWVRQAPGKGLEWVSSISGYGEETYYADSVKGRFTISRDNSKNTLYLQMNSLRAEDTAVYYCARFYYRYWKEFDYWGQGTLVTVSS	binds	binds	binds	binds	no binding	binds	binds
phage monoclonal antibody clone #6 (scFv, also called scFv 06; Scfv06) scFv: QAVLTQPPSASATPGQRVSISCSGSSSNIGRNTVNWYQHLPGTAPKLLIYSNDHRPSGVPDRFSGSQSGTSASLAISGLQSEDEADYYCASWDDSLTGWVFGGGTKVTVLGSRGGGGSGGGGSGGGGSLEMAQVQLVQSGAEVKKAGSSLKVSCKANGGSFTNYLINWVRQAPGQGLEWMGGIIPVYGTPIYSQKFQGRVTFTADEPTRTAYMELSSLTFEDTAVYYCVREDEGYGDLYLAYWGQGTLVTVSS	binds	binds	binds	binds	no binding	binds	binds
phage monoclonal antibody clone #13 (VHH, single-domain antibody (heavy chain variable region alone); also called VHH13; VHH 13) VHH: EVQLLESGGGLVQPGGSLRLSCAASGFTFSSEAMGWVRQAPGKGLEWVSSINGSGRNTYYADSVKGRFTISRDNSKNTLYLQMNSLRAEDTAVYYCARKHGEYYDSGYDVWGQGTLVTVSS					no binding		
phage monoclonal antibody clone #21 (VHH, single-domain antibody (heavy chain variable region alone); also called VHH21; VHH 21) VHH: EVQLLESGGGLVQPGGSLRLSCAASGFTFSNYAMGWVRQAPGKGLEWVSSITGLGGNMYYADSVKGRFTISRDNSKNTLYLQMNSLRAEDTAVYYCARMYYSQGVNNYSYPSTDIWGQGTLVTVSS	binds	binds	binds	binds	no binding	binds	binds
phage monoclonal antibody clone #9 (VHH, single-domain antibody (heavy chain variable region alone); also called VHH 09; 09 antibody) VHH: EVQLLESGGGLVQPGGSLRLSCAASGFTFNIDAMGWVRQAPGKGLEWVSSISSSGGTTYYADSVKGRFTISRDNSKNTLYLQMNSLRAEDTAVYYCARSRYSVPDGRGSYDVWGQGTLVTVSS	binds	binds	binds	binds	no binding	binds	binds
